Reference: patent US5935840A, “Activated recombinant adenovirus proteinases” (priority 1995, dated 1999)

What was measured:
[1] = tested on: Ad2 proteinase (rEP protein); type: biochemical, human adenovirus type 2; conditions: disrupted H2ts1 virus treated with DNase prior to the assay, plus recombinant proteinase
Description: (§1) The nature of the proteinase cofactor(s) was pursued with the aid of the second assay, which utilizes the substrate (Leu-Arg-Gly-Gly-NH)2 -rhodamine. The design of this substrate was based on two facts. (1) It was known that the proteinase present in disrupted Ad2 virions would cleave small peptides with sequence similar to that found at natural cleavage sites in adenovirus virion precursors (Webster et al., 1989). (2) Cleavage of either tetra-peptide sequence from the substituted rhodamine substrate produces a very large increase, up to a 3500-fold, in fluorescence. Under conditions where only a small fraction of the rhodamine substrate is cleaved, the increase in fluorescence is proportional to the amount of proteinase present and to the time of incubation. Thus, the fluorescence assay provides a quantitative method for assessing proteinase activity that is more sensitive convenient and rapid than the gel electrophoresis assay.
(§2) After determining the identity of the two cofactors, reconstitution of adenovirus proteinase activity in vitro with purified components was accomplished. […] In (a), Assays in 1 ml contained 1.2 nM rEP protein, 11.9 pM Ad2 DNA and the indicated concentrations of pVI-c peptide. The rate of substrate hydrolysis is the rate in the reaction minus the rate with the rEP protein and Ad2 DNA alone which was 0.068 pmol min^-1. In (b), Assays in 1 ml contained 1.2 nM rEP protein, 36 nM pVI-c peptide and the indicated concentrations of Ad2 DNA. The rate of substrate hydrolysis is the rate in the reaction minus the rate with the rEP protein and pVI-c alone which was 2.76 pmol min^-1. The concentration of (Leu-Arg-Gly-Gly-NH)2 -rhodamine was 5 μM, and its rate of hydrolysis to Leu-Arg-Gly-Gly-NH-rhodamine was determined by measuring the increase in fluorescence every 3 minutes for 15 minutes. The pVI-c peptide was assembled in a peptide synthesizer.
(§3) Assays were performed in 400 μl of Assay Buffer (50 mM Tris-HCl, pH 7.4, 25 mM NaCl, 10 mM octylglucoside, and 1 mM dithiothreitol). The concentration of the fluorogenic substrate, (Leu-Arg-Gly-Gly-NH)2 -rhodamine was 5 μM. When present, the number of disrupted virus particles was 10^10 and the amount of recombinant proteinase was 0.12 mAU280 nm. […] After 30 minutes at 37° C., a 360 μl aliquot of the reaction was added to 340 μl of Assay Buffer minus octylglucoside, and the increase in fluorescence was measured. The excitation wavelength was 492 nm and the emission wavelength was 523 nm, both with a bandwidth of 5 nm. The change in fluorescence, ΔF, is the magnitude of the fluorescence from the sample minus the magnitude of the fluorescence from an identical solution without enzyme.
(§4) DNase-treated disrupted virus was obtained by incubating 2×10^10 disrupted virions in 20 μl containing 0.1M NaAc, pH 5.0, 5 mM MgCl2, and 55 μg/ml DNase I for 4 minutes at 25° C. Then, EDTA to 23 mM and dithiothreitol to 2.3 mM were added, and the reactions were heated at 56° C. for 1 minute to inactivate the DNase.
(§5) For the assays shown in FIG. 8, the DNase reactions were diluted by the addition of 380 μl Assay Buffer containing the substrate, the proteinase and either 2×10^10 molecules of Ad2 DNA (+) or no DNA (-). After 30 minutes at 37° C., 360 μl of the reactions were added to 340 μl Assay Buffer minus octylglucoside and the increase in fluorescence was measured. The assays in (B) and (C) were identical to those in (A) except that in (B) H2ts1 virus was added after the DNase was inactivated (i-DNase) and in (C) no Dnase was present. In (D) recombinant proteinase plus 10^10 molecules of Ad2 DNA were preincubated for 10 minutes at 37° C. before adding substrate.
(§6) .dagger. All assays contained 8.3 nM rEP protein, 98 nM pVIc peptide, and
(§7) 1 μM (Leu--Arg--Gly--Gly--NH)2rhodamine. The rate of substrate

[2] = target: T1, recombinant Ad2 proteinase (Human adenovirus C serotype 2, UniProt P03252); assay: Cofactor activity in HEP1DBP cleavage by recombinant Ad2 proteinase; type: biochemical, human adenovirus type 2; conditions: peptide mixed with recombinant Ad2 proteinase and Ad2 DNA
T1 construct: also expresses the wild-type 204-amino acid EP polypeptide; made in house; host or cells: E. coli BL21(DE3)
Experimental: When purified HEP1DBP was incubated with disrupted wild-type adenovirus 2 virions, it was cleaved, as determined from the change in its mobility during SDS-polyacrylamide gel electrophoresis. No cleavage was observed when incubation was with disrupted H2ts1 virions alone.
To determine if the Ad12 carboxy-terminal fragment of pVI functioned as the EP co-factor, the corresponding synthetic peptide was mixed with recombinant Ad2 proteinase and Ad2 DNA, and incubated with the HEP1DBP substrate.

[3] = Stability/sensitivity of the peptide cofactor; type: physicochemical; conditions: boiling for 5 minutes
[4] = target: T2, Ad2 proteinase (rEP protein) (Human adenovirus C serotype 2, UniProt P03252); type: biochemical, human adenovirus type 2; conditions: 1.2 nM rEP protein, 36 nM pVI-c peptide, no DNA, 5 μM substrate, 1 ml
T2 construct: Plasmid pT7AD23k6 contains the 204 codons of the Ad2 proteinase reading frame plus a translational termination codon; made in house; host or cells: E. coli BL21(DE3)
Description: as §1, §2, §3, §4, §5, §6, §7

[5] = tested on: Ad2 major core protein precursor, pVII; assay: Assay of adenovirus proteinase activity in crude extracts: cleavage of [35S]-methionine-labeled pVII (SDS-PAGE, autoradiography); type: biochemical, adenovirus type 2; conditions: purified from baculovirus-infected Sf9 insect cells
[6] = tested on: (Leu-Arg-Gly-Gly-NH)2 -rhodamine; assay: Fluorescence assay of proteinase activity of virus and recombinant proteinase preparations; type: biochemical; conditions: about 5% pure, from Sf9 cells; Ad2 DNA and H2ts1 virions to provide cofactor
Description: as §1
as §3, with “The concentration of the fluorogenic substrate, (Leu-Arg-Gly-Gly-NH)2 -rhodamine was 5 μM.” left out
Disrupted virus was obtained as follows: Twice CsCl-banded virus was dialyzed against 10 mM Tris-HCl, pH 8.0, 1mM EDTA and centrifuged at 100,000×g for 1 hour. The pellet was suspended in 10 mM Tris-HCl, pH 6.8, containing 20% (v/v) glycerol and, after three 10 second bursts of sonication, was stored at -20° C. The fluorogenic substrate was synthesized and purified at BNL by Dr. Walter Mangel, using methods similar to those previously described by Dr. Mangel. These methods are described in two U.S. Patents (U.S. Pat. No. 4,557,862 entitled "Rhodamine derivatives as fluorogenic substrates for proteinases" by Mangel, W. F., Leytus, S., and L. Helhado; issued Dec. 10, 1985; U.S. patent application Ser. No. 780,552; "Novel rhodamine derivatives as fluorogenic substrates" by Mangel, W. F., Leytus, S., and L. Helhado; filing date Sep. 24, 1985) and in other publications by Mangel and co-workers.

T2 sequence (P03252 whole entry): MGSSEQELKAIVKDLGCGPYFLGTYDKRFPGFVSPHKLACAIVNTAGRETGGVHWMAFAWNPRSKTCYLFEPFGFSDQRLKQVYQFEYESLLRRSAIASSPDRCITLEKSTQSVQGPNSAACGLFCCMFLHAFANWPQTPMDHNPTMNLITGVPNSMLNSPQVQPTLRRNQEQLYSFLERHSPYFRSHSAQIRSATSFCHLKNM
T1 sequence (P03252 whole entry): as above

In the case of DNase, the “Proteinase activity lost relative to untreated H2ts1 virus” value [1] is reported as 94%.
For GVQSLHRRRCF [pVI-c peptide], the “Cleavage of the HEP1DBP substrate” value [2] was “Rapid and complete cleavage”, the “Heat stability of cofactor activity” value [3] was “did not irreversibly denature” and the “Rate of substrate hydrolysis with the rEP protein and pVI-c alone” value [4] was 2.76 pmol min^-1.
With “vNPVAd2EP: recombinant Ad2 proteinase expressed in Sf9 insect cells from baculovirus vector vNPVAd2EP” the “Activity in the crude extract assay” value [5] was “active” and the Specific activity [6] was “equivalent to that of bacterially-produced proteinase”.
